In patent US20240124595A1 (UNIVERSITY OF SASKATCHEWAN, published 2024):

Key:
[1] = biological target: T1, recombinant human IGF2R domains 11-13 Fc fusion protein (human, UniProt P11717 1511-1989); assay: phage ELISA on recombinant IGF2R Fc fusion
T1 construct: Soluble Fc fusion expressed in Expi293F; also called human IGF2R fragment; not shown: human IgG1 Fc from a modified pFUSE-hIgG1-Fc2 vector (Invivogen)

[2] = biological target: T2, recombinant murine IGF2R domains 11-13 Fc fusion protein (murine; human, UniProt Q07113 1504-1982); assay: competitive Fab-phage ELISA, same protein in solution as competitor
T2 construct: Soluble Fc fusion expressed in Expi293F; also called murine IGF2R fragment; not shown: human IgG1 Fc from a modified pFUSE-hIgG1-Fc2 vector (Invivogen)

[3] = biological target: T3, recombinant canine IGF2R domains 11-13 Fc fusion protein (canine; human); assay: as above
T3 construct: Soluble Fc fusion expressed in Expi293F; also called canine IGF2R fragment; not shown: human IgG1 Fc from a modified pFUSE-hIgG1-Fc2 vector (Invivogen)
T3 chain: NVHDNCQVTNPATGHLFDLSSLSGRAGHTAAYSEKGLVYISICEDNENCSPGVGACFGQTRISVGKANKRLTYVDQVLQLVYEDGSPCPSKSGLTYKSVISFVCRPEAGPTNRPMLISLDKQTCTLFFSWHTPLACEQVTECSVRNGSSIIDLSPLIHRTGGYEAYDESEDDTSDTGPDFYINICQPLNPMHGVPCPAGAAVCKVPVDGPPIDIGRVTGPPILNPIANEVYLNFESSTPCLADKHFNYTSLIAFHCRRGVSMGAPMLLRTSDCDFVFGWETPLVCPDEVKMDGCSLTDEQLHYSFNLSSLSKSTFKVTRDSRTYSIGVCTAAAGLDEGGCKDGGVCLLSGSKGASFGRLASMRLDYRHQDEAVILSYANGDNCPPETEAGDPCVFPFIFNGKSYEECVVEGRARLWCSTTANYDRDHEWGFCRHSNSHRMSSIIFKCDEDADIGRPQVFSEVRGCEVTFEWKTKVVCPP

[4] = biological target: T1, recombinant human IGF2R domains 11-13 …; assay: ELISA on coated recombinant IGF2R
[5] = biological target: T2, recombinant murine IGF2R domains 11-13 …; assay: ELISA on coated recombinant IGF2R
[6] = biological target: T3, recombinant canine IGF2R domains 11-13 …; assay: ELISA on coated recombinant IGF2R
[7] = biological target: T4, human IGF2R on human osteosarcoma cells (human, UniProt P11717 41-2491); assay: flow cytometry on human OS cell lines
T4 construct: whole, on cells; Endogenous receptor on tumour cell lines, not transfected cells; also called OS-33
T4 sequence (P11717 41-2491): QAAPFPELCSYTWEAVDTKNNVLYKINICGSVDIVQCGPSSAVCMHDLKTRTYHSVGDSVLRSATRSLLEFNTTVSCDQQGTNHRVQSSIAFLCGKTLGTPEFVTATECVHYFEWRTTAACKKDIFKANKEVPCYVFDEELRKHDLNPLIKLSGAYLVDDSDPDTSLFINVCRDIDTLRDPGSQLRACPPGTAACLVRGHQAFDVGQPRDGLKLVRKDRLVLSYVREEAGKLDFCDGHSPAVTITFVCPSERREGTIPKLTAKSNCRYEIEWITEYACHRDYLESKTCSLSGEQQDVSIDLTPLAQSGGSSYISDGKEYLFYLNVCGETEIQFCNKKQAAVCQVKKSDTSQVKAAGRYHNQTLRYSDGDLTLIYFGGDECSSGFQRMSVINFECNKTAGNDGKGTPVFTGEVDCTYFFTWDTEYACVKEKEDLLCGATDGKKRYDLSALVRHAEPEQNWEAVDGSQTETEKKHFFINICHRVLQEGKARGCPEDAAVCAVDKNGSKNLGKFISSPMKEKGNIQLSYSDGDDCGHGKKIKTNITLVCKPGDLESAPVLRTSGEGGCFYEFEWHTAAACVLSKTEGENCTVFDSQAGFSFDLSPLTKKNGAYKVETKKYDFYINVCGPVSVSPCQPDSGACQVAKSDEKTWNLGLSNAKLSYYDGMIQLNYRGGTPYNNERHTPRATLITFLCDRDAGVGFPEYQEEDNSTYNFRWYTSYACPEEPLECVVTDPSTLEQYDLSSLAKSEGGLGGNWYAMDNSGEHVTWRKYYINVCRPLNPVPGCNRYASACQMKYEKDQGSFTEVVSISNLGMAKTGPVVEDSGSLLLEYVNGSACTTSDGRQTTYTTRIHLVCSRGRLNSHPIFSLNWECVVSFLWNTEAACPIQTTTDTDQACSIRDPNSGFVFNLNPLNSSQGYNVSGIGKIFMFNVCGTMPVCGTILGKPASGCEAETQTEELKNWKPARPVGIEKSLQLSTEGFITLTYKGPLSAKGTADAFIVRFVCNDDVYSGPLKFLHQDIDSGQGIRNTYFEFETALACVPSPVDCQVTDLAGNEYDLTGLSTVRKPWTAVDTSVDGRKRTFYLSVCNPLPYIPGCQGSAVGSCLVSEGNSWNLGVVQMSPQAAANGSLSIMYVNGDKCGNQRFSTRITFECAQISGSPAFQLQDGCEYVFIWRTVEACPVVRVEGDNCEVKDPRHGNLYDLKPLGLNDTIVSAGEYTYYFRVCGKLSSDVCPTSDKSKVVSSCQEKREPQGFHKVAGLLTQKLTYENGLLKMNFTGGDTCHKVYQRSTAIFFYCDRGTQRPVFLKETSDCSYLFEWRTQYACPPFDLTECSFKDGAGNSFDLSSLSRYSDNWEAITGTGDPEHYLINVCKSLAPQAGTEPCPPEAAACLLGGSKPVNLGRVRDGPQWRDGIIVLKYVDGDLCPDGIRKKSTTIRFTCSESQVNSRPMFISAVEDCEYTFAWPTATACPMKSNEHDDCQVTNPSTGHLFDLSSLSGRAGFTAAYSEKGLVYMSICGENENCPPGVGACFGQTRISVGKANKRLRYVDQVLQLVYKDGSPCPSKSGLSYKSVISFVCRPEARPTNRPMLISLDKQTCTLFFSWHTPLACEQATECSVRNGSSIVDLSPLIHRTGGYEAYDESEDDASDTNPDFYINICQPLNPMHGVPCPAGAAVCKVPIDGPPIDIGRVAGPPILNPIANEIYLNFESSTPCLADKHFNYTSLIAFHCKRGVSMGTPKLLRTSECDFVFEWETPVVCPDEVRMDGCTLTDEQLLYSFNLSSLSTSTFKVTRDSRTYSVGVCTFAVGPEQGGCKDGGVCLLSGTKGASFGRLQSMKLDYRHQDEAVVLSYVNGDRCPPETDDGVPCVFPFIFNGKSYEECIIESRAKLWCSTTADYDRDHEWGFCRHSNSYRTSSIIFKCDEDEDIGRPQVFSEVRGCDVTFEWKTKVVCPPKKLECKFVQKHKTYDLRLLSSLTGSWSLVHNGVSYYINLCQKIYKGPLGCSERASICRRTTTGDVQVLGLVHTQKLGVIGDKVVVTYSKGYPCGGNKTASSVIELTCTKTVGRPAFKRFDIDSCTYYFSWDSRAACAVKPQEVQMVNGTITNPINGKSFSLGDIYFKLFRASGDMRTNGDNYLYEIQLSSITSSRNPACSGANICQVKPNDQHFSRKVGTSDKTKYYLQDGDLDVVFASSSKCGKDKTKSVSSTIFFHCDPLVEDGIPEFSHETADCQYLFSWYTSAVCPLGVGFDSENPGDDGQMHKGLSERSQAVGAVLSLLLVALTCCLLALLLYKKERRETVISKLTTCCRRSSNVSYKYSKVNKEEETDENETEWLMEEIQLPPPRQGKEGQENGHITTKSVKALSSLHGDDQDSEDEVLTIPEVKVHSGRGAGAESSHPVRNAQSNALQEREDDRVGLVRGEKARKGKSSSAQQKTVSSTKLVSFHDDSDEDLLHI

[8] = biological target: T5, recombinant human IGF2R domains 11-13 Fc fusion protein (UniProt P11717 1511-1989); assay: ELISA; printed as "IC 50 or EC 50"
T5 chain: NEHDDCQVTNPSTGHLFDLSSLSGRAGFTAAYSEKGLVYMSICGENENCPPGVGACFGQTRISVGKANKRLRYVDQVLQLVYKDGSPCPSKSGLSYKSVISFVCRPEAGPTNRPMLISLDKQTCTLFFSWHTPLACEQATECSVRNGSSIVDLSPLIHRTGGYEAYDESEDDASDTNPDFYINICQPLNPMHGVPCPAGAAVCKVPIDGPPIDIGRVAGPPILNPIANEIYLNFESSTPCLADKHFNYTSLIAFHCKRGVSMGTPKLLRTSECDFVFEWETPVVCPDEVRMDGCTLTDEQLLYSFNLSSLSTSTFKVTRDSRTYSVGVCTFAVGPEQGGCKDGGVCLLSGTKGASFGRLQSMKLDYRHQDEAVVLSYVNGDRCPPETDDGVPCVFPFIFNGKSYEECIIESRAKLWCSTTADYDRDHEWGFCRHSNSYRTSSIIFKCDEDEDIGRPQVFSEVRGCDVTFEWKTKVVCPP

[9] = biological target: T6, recombinant canine IGF2R domains 11-13 Fc fusion protein; assay: ELISA; printed as "IC 50 or EC 50"
T6 chain: T3 chain

[10] = biological target: T7, recombinant murine IGF2R domains 11-13 Fc fusion protein (UniProt Q07113 1504-1982); assay: ELISA; printed as "IC 50 or EC 50"
T7 chain: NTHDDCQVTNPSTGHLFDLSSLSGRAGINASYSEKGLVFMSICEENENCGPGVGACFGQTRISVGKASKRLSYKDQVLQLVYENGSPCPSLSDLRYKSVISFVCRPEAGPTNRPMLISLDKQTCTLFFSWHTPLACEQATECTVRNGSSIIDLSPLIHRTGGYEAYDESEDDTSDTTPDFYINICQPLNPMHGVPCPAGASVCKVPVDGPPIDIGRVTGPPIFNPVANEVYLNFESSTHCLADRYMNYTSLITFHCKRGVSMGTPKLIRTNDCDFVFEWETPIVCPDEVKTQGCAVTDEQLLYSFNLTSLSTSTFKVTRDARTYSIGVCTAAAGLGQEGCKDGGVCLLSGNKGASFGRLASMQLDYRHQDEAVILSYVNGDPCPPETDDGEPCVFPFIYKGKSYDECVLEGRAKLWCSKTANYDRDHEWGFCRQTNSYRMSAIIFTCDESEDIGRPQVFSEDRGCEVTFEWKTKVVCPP

[11] = biological target: T1, recombinant human IGF2R domains 11-13 …; assay: competitive Fab-phage ELISA, same protein in solution as competitor

B1: IGF2R-Fab-1 (Fab, V domains shown)
VH: EVQLVESGGGVVQPGGSLRLSCAASGFTFSSYAMHWVRQAPGKGLEWVAVISYDGSNKYYADSVKGRFTISRDNSKNTLYLQMNSLRAEDTAVYYCARDDRFFGGMDVWGQGTTVTVSS
VL: AIRMTQSPSSLSASVGDRVTITCRASQDISSWLAWYQQKPDKAPKSLIYAASSLEDGVPSRFSGSGSGTDFTLTISSLQAEDFATYYCQQYNTYPWTFGQGTKVEIK
notes: From the naive library (VH3-30 / VK1); also called Fab-phage
[1]
  binding result: binds
[2]
  binding result: binds
[3]
  binding result: binds

B2: IF1 (antibody, human IgG1, kappa, V domains shown)
VH: B1 VH
VL: AIRMTQSPSSLSASVGDRVTITCRASQDISSWLAWYQQKPDKAPKSLIYAASSLEDGVPSRFSGSGSGTDFTLTISSLQAEDFATYYCQQYNTYPWTFGQGTKVEIKR
notes: Full-length human IgG1 kappa expressed in Expi293F cells; also called IGF2R-IgG#1; full-size human IgG from Fab1
[4]
  binding result: binds
[5]
  binding result: binds
[6]
  binding result: binds
[7]
  binding result: binds

B3: IF3 (antibody, human IgG1, kappa, V domains shown)
VH: EVQLVESGGGLVQPGGSLRLSCAASGFNIKDTYIHWVRQAPGKGLEWVAFIDPIFGDTRYADSVKGRFTISADTSKNTAYLQMNSLRAEDTAVYYCSRWGGDGFYAMDYWGQGTLVTVSS
VL: DIQMTQSPSSLSASVGDRVTITCRASQDVNTAVAWYQQKPGKAPKLLIYSASFLYSGVPSRFSGSRSGTDFTLTISSLQPEDFATYYCQQAYFFHHFPPTFGQGTKVEIKR
notes: Full-length human IgG1 kappa expressed in Expi293F cells; also called 1F3; IGF2R-IgG#3
[4]
  binding result: binds
[5]
  binding result: binds
[6]
  binding result: binds
[7]
  binding result: binds
[8]
  EC50: 1.14 nM
[9]
  EC50: 3.22 nM
[10]
  EC50: 3.06 nM

B4: IGF2R-Fab-3 (Fab, V domains shown)
VH: B3 VH
VL: DIQMTQSPSSLSASVGDRVTITCRASQDVNTAVAWYQQKPGKAPKLLIYSASFLYSGVPSRFSGSRSGTDFTLTISSLQPEDFATYYCQQAYFFHHFPPTFGQGTKVEIK
notes: From the synthetic 4D5-8 (trastuzumab framework) library; also called Fab-phage
[11]
  binding result: binds
[2]
  binding result: binds
[3]
  binding result: binds

B5: IGF2R-Fab-2 (Fab, V domains shown)
VH: EVQLVESGGGLVQPGGSLRLSCAASGFNIKYTYIHWVRQAPGKGLEWVALIDPHYGFTRYADSVKGRFTISADTSKNTAYLQMNSLRAEDTAVYYCSRWYYDHAMDYWGQGTLVTVSS
VL: DIQMTQSPSSLSASVGDRVTITCRASQLVDTAVAWYQQKPGKAPKLLIYFASYLYSGVPSRFSGSRSGTDFTLTISSLQPEDFATYYCQQVVYYPPTFGQGTKVEIK
notes: as for B4
[11]
  binding result: binds
[2]
  binding result: binds
[3]
  binding result: binds
